Positions count from the first letter of the chain named. Values belong to the binder of their own block, whether it stands above or below them.
Columns and labels:
[1] = target: T1, human LAG3 expressed on cells (human, UniProt P18627 23-525); assay: cell ELISA, 293T-hLAG3 cells
T1 construct: whole, on cells
T1 sequence (looked up): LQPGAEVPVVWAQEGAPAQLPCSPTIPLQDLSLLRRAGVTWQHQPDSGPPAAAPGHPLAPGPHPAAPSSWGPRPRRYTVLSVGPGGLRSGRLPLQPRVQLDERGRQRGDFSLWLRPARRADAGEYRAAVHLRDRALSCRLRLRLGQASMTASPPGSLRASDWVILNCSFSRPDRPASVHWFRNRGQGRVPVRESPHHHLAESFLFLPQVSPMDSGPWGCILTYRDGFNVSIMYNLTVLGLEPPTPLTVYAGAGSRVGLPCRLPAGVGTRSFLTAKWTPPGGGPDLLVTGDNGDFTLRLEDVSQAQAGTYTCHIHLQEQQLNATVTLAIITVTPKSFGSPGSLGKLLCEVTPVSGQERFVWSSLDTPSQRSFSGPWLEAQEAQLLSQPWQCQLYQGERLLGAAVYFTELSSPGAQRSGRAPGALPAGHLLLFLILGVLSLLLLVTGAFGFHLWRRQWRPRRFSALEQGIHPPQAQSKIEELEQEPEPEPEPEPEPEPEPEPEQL
Experimental: Each well was treated with stimulants. The cells were then fixed and blocked with Blocking buffer. The Primary antibodies were added. The wells were washed and a HRP-conjugated secondary antibody was added. The wells were washed with 1x PBS and a solution containing TMB (Biopanda, TMB-S-004) was added. The TMB reacted with HRP to change the color thereof from colorless to blue. An acid stop solution (Solarbio, C1058) was then added to stop the reaction and change the blue color to yellow.
Materials are listed below: [0072] […] 2) Blocking buffer: 1×PBS+3% BSA (Sigma, B2064); [0074] […] [0075] 4) Secondary antibody: Goat anti-human IgG1 Fc antibody, HRP (1:2500, invitrogen, A18817). [0076]

[2] = target: T2, LAG3 Protein, Human, Recombinant (His Tag) (Sino Biological Catalog No. 16498-H08H) (human, UniProt P18627 23-450); assay: ELISA, coated hLAG3-His
T2 construct: Bought protein; also called hLAG3-His; LAG3-His; not shown: His tag
T2 sequence (looked up): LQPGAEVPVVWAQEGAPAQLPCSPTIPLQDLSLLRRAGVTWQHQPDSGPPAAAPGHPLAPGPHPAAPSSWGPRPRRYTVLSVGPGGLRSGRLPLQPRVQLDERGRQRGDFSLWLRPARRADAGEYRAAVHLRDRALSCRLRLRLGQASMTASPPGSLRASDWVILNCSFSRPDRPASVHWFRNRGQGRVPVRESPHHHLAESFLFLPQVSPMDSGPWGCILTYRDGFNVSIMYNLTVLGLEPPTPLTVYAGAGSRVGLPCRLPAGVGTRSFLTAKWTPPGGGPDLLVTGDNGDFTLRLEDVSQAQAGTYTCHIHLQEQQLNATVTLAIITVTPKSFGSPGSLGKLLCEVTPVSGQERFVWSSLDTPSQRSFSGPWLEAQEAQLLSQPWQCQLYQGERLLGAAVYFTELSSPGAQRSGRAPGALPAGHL
Experimental: Plates were coated with 100 µL per well of Coating Solution, and then covered, and incubated overnight (12-18 hours) at 2-8° C. The wells were aspirated and washed 1 time with >200 µL of Wash buffer per well, inverted and tapped on absorbent paper to remove excess liquid. The plates were blocked with 200 µL per well with Blocking buffer (1×PBS+4% milk) for 1 hour at room temperature, aspirated, inverted, and tapped on absorbent paper to remove excess liquid. Standards and sample dilutions were prepared in Blocking buffer. 100 µL of standards (in duplicate) and samples were pipetted into designated wells. After incubation for 1 hour at room temperature with gentle continual shaking (~500 rpm), the wells were aspirate and washed 3 times with >200 µL of Wash buffer per well, inverted and tapped on absorbent paper to remove excess liquid.
The primary antibody solution was diluted with Blocking buffer. See Table 14 for recommended primary antibody dilution. 100 µL of the primary antibody solution was added into each well and incubated for 2 hours at room temperature with gentle continual shaking (~500 rpm). The wells were aspirated and washed 3 times with >200 µL of Wash buffer per well, inverted and tapped on absorbent paper to remove excess liquid. The working solution of secondary antibody was made with Blocking buffer by diluting the secondary antibody by 2,500 times. 100 µL of secondary antibody working solution was added into each well and incubated for 30 minutes at room temperature. The wells were aspirated and washed 5 times with >200 µL of Wash buffer per well, inverted and tapped on absorbent paper to remove excess liquid. 100 µL of TMB substrate solution (Biopanda, TMB-S-004) was added to each well and incubated for 30 minutes at room temperature. 100 µL of Stop solution (Solarbio, C1058) was added to each well. Absorbance at 450 nm was measured within 30 minutes of adding Stop solution. Results were calculated using a log-log or 4-parameter curve fit.

[3] = target: T1, human LAG3 expressed on cells; assay: FACS, 293T-hLAG3 cells
Experimental: 5) The prepared antibody samples were added to the 96-well plate according to the platemap, the cells were resuspended and incubate at 4° C. for 1 hour.
7) 3% BSA/1xPBS was used to dilute Goat polyclonal Secondary Antibody to Human IgG-Fc (DyLight® 650) to the desired concentration (1:200), in which the cells were resuspended and incubated at 4° C. for 1 hour.
9) The cells were resuspended in 200 µl of 3% BSA/1xPBS, and performed flow cytometric testing by Shsti Biotech Inc.

[4] = target: T1, human LAG3 expressed on cells; assay: cell-based or functional assay

EC50 [1]: 1.01 nM | OD450 at 0.0045725 ug/ml [1]: 0.096 | OD450 at 0.0137174 ug/ml [1]: 0.208 | OD450 at 0.0411523 ug/ml [1]: 0.43 | OD450 at 0.1234568 ug/ml [1]: 0.818 | OD450 at 0.3703704 ug/ml [1]: 1.11 | OD450 at 1.111111 ug/ml [1]: 1.21 | OD450 at 3.333333 ug/ml [1]: 1.13 | OD450 at 10 ug/ml [1]: 1.28
B1: sdAb No. 17-H3 (VHH)
VHH: QLQLVESGGGLVQPGGSLRLSCAASGLTLDGYAIGWFRQAPGKEREGLACISGSDASTHYLDSVKGRFTISRDNGKNTMALQMNSLQFGDTAIYYCAARRGSCSGSWTYWGQGTQVTVSS
notes: Modified sdAb No. 17 (CDR2 DG to DA); not shown: Fc part implied by anti-human IgG1 Fc detection

EC50 [2]: 2 nM | OD450 at 0.061 nM [2]: 0.038 | OD450 at 0.1829 nM [2]: 0.057 | OD450 at 0.5487 nM [2]: 0.132 | OD450 at 1.6461 nM [2]: 0.648 | OD450 at 4.9383 nM [2]: 1.25 | OD450 at 14.815 nM [2]: 1.41 | OD450 at 44.445 nM [2]: 1.33 | OD450 at 133.335 nM [2]: 1.66 | EC50 [3]: 0.6 nM | FACS signal at 0.061 nM [3]: 191 | FACS signal at 0.1829 nM [3]: 487 | FACS signal at 0.5487 nM [3]: 1110 | FACS signal at 1.6461 nM [3]: 1690 | FACS signal at 4.9383 nM [3]: 2030 | FACS signal at 14.815 nM [3]: 2210 | FACS signal at 44.445 nM [3]: 2480 | FACS signal at 133.335 nM [3]: 2380
B2: sdAb No. 25-B7 (VHH)
VHH: QLQLVESGGGLVKPGGSLRLSCAASGSIESFSFMGWYRQAPGKQRELVAGFTGAASLSFSTYTDAVKGRFTISRDNAKNSVYLQMNSLRAEDTAVYFCNVDPWSQSWPGRYWGQGTTVTVSS
notes: Humanized sdAb No. 25; not shown: Fc part implied by anti-human IgG Fc detection

IL-2, % of BMS, at 0.005080526 ug/mL [4]: 0% | IL-2, % of BMS, at 0.015241579 ug/mL [4]: 4.21% | IL-2, % of BMS, at 0.045724737 ug/mL [4]: -1.96% | IL-2, % of BMS, at 0.137174211 ug/mL [4]: 10.8% | IL-2, % of BMS, at 0.411522634 ug/mL [4]: 39% | IL-2, % of BMS, at 1.234567901 ug/mL [4]: 51.2% | IL-2, % of BMS, at 3.703703704 ug/mL [4]: 62.3% | IL-2, % of BMS, at 11.11111111 ug/mL [4]: 69.3% | IL-2, % of BMS, at 33.33333333 ug/mL [4]: 79.8% | IL-2, % of BMS, at 100 ug/mL [4]: 83%
B3: combination of sdAbs 25 and 27 (other)
VHH 1: B2 VHH with K13Q, P14A, S80T, R89K, A90P, T117Q
VHH 2: QVQLVESGGGLVQPGGSLRLSCAASGFTLDYYAIGWFRQAPGKEREGVSCIRSSDGSTYYADSVKGRFTISSDNTKNTVYLQMNSLKPEDTAVYYCATDRYSDCRGPYENWGQGTQVTVSS

IL-2, % of BMS, at 0.005080526 ug/mL [4]: 0.0473% | IL-2, % of BMS, at 0.015241579 ug/mL [4]: 0.883% | IL-2, % of BMS, at 0.045724737 ug/mL [4]: -2.03% | IL-2, % of BMS, at 0.137174211 ug/mL [4]: 0.439% | IL-2, % of BMS, at 0.411522634 ug/mL [4]: 3.96% | IL-2, % of BMS, at 1.234567901 ug/mL [4]: 18.9% | IL-2, % of BMS, at 3.703703704 ug/mL [4]: 43.6% | IL-2, % of BMS, at 11.11111111 ug/mL [4]: 52.5% | IL-2, % of BMS, at 33.33333333 ug/mL [4]: 50.7% | IL-2, % of BMS, at 100 ug/mL [4]: 62.2%
B4: combination of sdAbs 25 and 2015 (other)
VHH 1: B2 VHH with K13Q, P14A, S80T, R89K, A90P, T117Q
VHH 2: QLQLVESGGGLAQTGGSLRLSCAAAGFTFDDTATGWFRQAPGKNREGVACISSSDGRIHYIDSAKGRFTISKDNAKKTVYLQMDSLKPEDTAVYYCAAARKGSTDCQGAIWGSWGQGTQVIVSS

IL-2, % of BMS, at 0.005080526 ug/mL [4]: 0% | IL-2, % of BMS, at 0.015241579 ug/mL [4]: 1.97% | IL-2, % of BMS, at 0.045724737 ug/mL [4]: 13.2% | IL-2, % of BMS, at 0.137174211 ug/mL [4]: 14.6% | IL-2, % of BMS, at 0.411522634 ug/mL [4]: 32.6% | IL-2, % of BMS, at 1.234567901 ug/mL [4]: 45.4% | IL-2, % of BMS, at 3.703703704 ug/mL [4]: 52.9% | IL-2, % of BMS, at 11.11111111 ug/mL [4]: 52.5% | IL-2, % of BMS, at 33.33333333 ug/mL [4]: 65% | IL-2, % of BMS, at 100 ug/mL [4]: 66.5%
B5: combination of sdAbs 25 and 18 (other)
VHH 1: B2 VHH with K13Q, P14A, S80T, R89K, A90P, T117Q
VHH 2: QVQLVESGGGLVQPGGSLRLSCAASGFTLNEHAIGWFRRAPGKEREGVSCISSSDGSTYYHDSVKGRFNMSRDDAKNSVYLQMSSLKPEDTAIYYCAAALGRDCQGGQWKTSSWGQGTQVTVSS
